Results from paper PMC2856262.
Like-named read-outs stand apart in the source and are kept apart here. Values belong to the substance of their own block, whether it stands above or below them.

Tests used:
[1] = target: Rat MBL, deletion mutant (one Gly-Xaa-Yaa triplet removed from the collagenous domain) (rat) (UniProt P19999); assay: SPR
[2] = target: Rat MBL, double-deletion mutant (two Gly-Xaa-Yaa triplets removed from the collagenous domain) (rat) (UniProt P19999); assay: SPR
[3] = target: Rat MBL, insertion mutant (a single Gly-Pro-Hyp inserted near the kink-like region) (rat) (UniProt P19999); assay: SPR
[4] = target: Rat MBL, kink mutant (kink-like region removed by insertion of a proline residue) (rat) (UniProt P19999); assay: SPR
[5] = target: Recombinant rat mannose-binding lectin (MBL), wild-type (rat) (UniProt P19999); assay: SPR
[6] = target: SPA-KL (SP-A with Glu63 to Lys and Cys64 to Leu); assay: SPR
[7] = target: SPA-KLP (SP-A with Glu63 to Lys, Cys64 to Leu and Glu66 to Pro); assay: SPR
[8] = target: SPA-KLPO (SPA-KLP with Lys67 replaced by hydroxyproline); assay: SPR
[9] = target: SPA-KLPOS (SPA-KLPO with the cysteine of the kink replaced by serine); assay: SPR
[10] = target: SPA-KLPOdel (SPA-KLPO with the kink sequence PCPP removed); assay: SPR
[11] = target: Recombinant rat mannose-binding lectin (MBL), wild-type (rat) (UniProt P19999); assay: SPR; remark: listed apart in the source
[12] = target: SPA-KLP (SP-A with Glu63 to Lys, Cys64 to Leu and Glu66 to Pro)
[13] = target: SPA-KLPO (SPA-KLP with Lys67 replaced by hydroxyproline)
[14] = target: SPA-KLPOS (SPA-KLPO with the cysteine of the kink replaced by serine)
[15] = target: SPA-KLPOdel (SPA-KLPO with the kink sequence PCPP removed)

KD, complex 2 [1]: 175 nM
koff, complex 2 [1]: 0.0054 s⁻¹
KD, complex 2 [2]: 195 nM
KD, complex 2 [3]: 199 nM
KD, complex 2 [4]: 136 nM
KD, complex 2 [5]: 165 nM
koff, complex 2 [5]: 0.00475 s⁻¹
KD, complex 2 [6]: 2120 nM
KD, complex 2 [7]: 104 nM
koff, complex 2 [7]: 0.0176 s⁻¹
kon, complex 2 [7]: 360000 M⁻¹ s⁻¹
KD, complex 2 [8]: 232 nM
koff, complex 2 [8]: 0.022 s⁻¹
kon, complex 2 [8]: 96000 M⁻¹ s⁻¹
KD, complex 2 [9]: 203 nM
koff, complex 2 [9]: 0.037 s⁻¹
kon, complex 2 [9]: 210000 M⁻¹ s⁻¹
KD, complex 2 [10]: 114 nM
koff, complex 2 [10]: 0.021 s⁻¹
KD, complex 2 [11]: 166 nM
Substance: MASP-2A (rat MBL-associated serine protease-2, catalytically inactive, Ser613 to Ala) (enzyme)
koff, complex 1 [1]: 0.0038 s⁻¹
KD, complex 1 [3]: 4.9 nM
koff, complex 1 [4]: 0.0062 s⁻¹
kon, complex 1 [7]: 54000 M⁻¹ s⁻¹
KD, complex 1 [8]: 97 nM
koff, complex 1 [8]: 0.0025 s⁻¹
kon, complex 1 [8]: 26000 M⁻¹ s⁻¹
KD, complex 1 [9]: 99 nM
koff, complex 1 [9]: 0.0046 s⁻¹
kon, complex 1 [9]: 45000 M⁻¹ s⁻¹
KD, complex 1 [10]: 29 nM
koff, complex 1 [10]: 0.0017 s⁻¹
kon, complex 1 [10]: 53000 M⁻¹ s⁻¹
KD, complex 1 [11]: 3.8 nM

Half-time for MASP-2K activation, fucose-Sepharose as target [12]: 270 min
Half-time for MASP-2K activation, fucose-Sepharose as target [13]: 256 min
Half-time for MASP-2K activation, fucose-Sepharose as target [14]: 166 min
Half-time for MASP-2K activation, fucose-Sepharose as target [15]: 316 min
Substance: MASP-2K (rat MBL-associated serine protease-2, catalytically active, Arg424 to Lys) (enzyme)
